According to the supplement of paper PMC10724198:
± gives the standard deviation of the averaged measurements.

Key:
Saccharomyces cerevisiae [1] = experiment: protein stability index of tFT-peptide fusion (C-terminal peptide) (PSI (0-1 scale)); higher = more stable (slower turnover)
Procedure: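 MPS profiling in S. cerevisiae of the tFT-X12 degron library: putative degron peptides plus stable controls, 12 aa, fused to the C-terminus of a sfGFP-mCherry timer. Cells are FACS-sorted into 8 mCherry/sfGFP bins and deep-sequenced. PSI runs from 0 (unstable) to 1 (stable). Backgrounds are wild type, das1Δ and doa10Δ at 30 °C, and wild type, das1Δ, cdc34-1 and cdc53-1 at 37 °C; 2-3 technical replicates each.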

Saccharomyces cerevisiae [2] = experiment: as above; settings: genetic background: wild type; temperature: 30 C
[3] = genetic background: cdc34-1, temperature: 37 C
[4] = genetic background: cdc53-1, temperature: 37 C
[5] = genetic background: das1 deletion, temperature: 30 C
[6] = genetic background: das1 deletion, temperature: 37 C
[7] = genetic background: doa10 deletion, temperature: 30 C
[8] = genetic background: wild type, temperature: 30 C
[9] = genetic background: wild type, temperature: 37 C
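Further: PSI is a weighted mean of sequencing reads over stability bins, variants kept only with over 10 reads, mCherry proximal and sfGFP distal, peptide attached via GGGS linker.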

Sequence	protein stability index (Saccharomyces cerevisiae [1]; [3])	protein stability index (Saccharomyces cerevisiae [1]; [4])	protein stability index (Saccharomyces cerevisiae [1]; [5])	protein stability index (Saccharomyces cerevisiae [1]; [6])	protein stability index (Saccharomyces cerevisiae [1]; [7])	protein stability index (Saccharomyces cerevisiae [1]; [8])	protein stability index (Saccharomyces cerevisiae [1]; [9])	protein stability index (Saccharomyces cerevisiae [2])
TFVGWIVWLCGS	0.537 ± 0.026	0.621 ± 0.0073	0.487 ± 0.033	0.6164 ± 0.0052	0.216 ± 0.0069	0.258 ± 0.022	0.456 ± 0.0097	0.331 ± 0.018
HIVYCSSEQIKC	0.53 ± 0.048	0.6419 ± 0.0016	0.446 ± 0.026	0.589 ± 0.0063	0.482 ± 0.028	0.483 ± 0.029	0.56 ± 0.032	0.497 ± 0.0059
RVCVFVLFGLCF	0.352 ± 0.041	0.401 ± 0.0075	0.324 ± 0.04	0.48 ± 0.0059	0.309 ± 0.0047	0.315 ± 0.022	0.441 ± 0.0053	0.383 ± 0.011
RGFIYCSFVVRL	0.4134 ± 0.00058	0.466 ± 0.029	0.328 ± 0.025	0.532 ± 0.012	0.301 ± 0.016	0.33 ± 0.021	0.465 ± 0.022	0.412 ± 0.0052
FGVLGCAWVWVG	0.394 ± 0.0091	0.528 ± 0.032	0.465 ± 0.033	0.625 ± 0.017	0.0888 ± 0.019	0.114 ± 0.021	0.103 ± 0.037	0.157 ± 0.045
VGPLAPVCLLVL	0.445 ± 0.025	0.4817 ± 0.0043	0.36 ± 0.038	0.516 ± 0.013	0.325 ± 0.012	0.359 ± 0.019	0.477 ± 0.0057	0.459 ± 0.046
CFWLLSSLLLFL	0.462 ± 0.016	0.474 ± 0.0089	0.429 ± 0.017	0.5398 ± 0.0016	0.492 ± 0.0067	0.416 ± 0.034	0.514 ± 0.0075	0.453 ± 0.019
KERNKISQRKLT	0.65 ± 0.009	0.654 ± 0.034	0.666 ± 0.015	0.714 ± 0.028	0.143 ± 0.023	0.185 ± 0.018	0.416 ± 0.013	0.434 ± 0.024
VRIGCSLLFFLP	0.661 ± 0.036	0.734 ± 0.014	0.589 ± 0.0067	0.6934 ± 0.0062	0.478 ± 0.015	0.501 ± 0.015	0.6267 ± 0.0046	0.532 ± 0.051
VWSSSYVPLGVY	0.319 ± 0.015	0.326 ± 0.066	0.275 ± 0.044	0.443 ± 0.0067	0.231 ± 0.015	0.271 ± 0.033	0.384 ± 0.013	0.398 ± 0.044
FRFGAKISLIVL	0.569 ± 0.019	0.565 ± 0.014	0.47 ± 0.018	0.584 ± 0.015	0.189 ± 0.0063	0.225 ± 0.033	0.42 ± 0.034	0.368 ± 0.064
FAVHHLRYILLV	0.227 ± 0.029	0.325 ± 0.019	0.316 ± 0.024	0.436 ± 0.0073	0.0929 ± 0.009	0.0847 ± 0.024	0.129 ± 0.016	0.106 ± 0.016
LFLLSVNLLLGY	0.0581 ± 0.025	0.0949 ± 0.028	0.138 ± 0.035	0.191 ± 0.035	0.105 ± 0.0095	0.112 ± 0.04	0.163 ± 0.0081	0.237 ± 0.065
VWCVFHVWSGRL	0.49 ± 0.035	0.585 ± 0.016	0.42 ± 0.023	0.6175 ± 0.0012	0.38 ± 0.007	0.409 ± 0.018	0.58 ± 0.012	0.494 ± 0.029
DNLYSLEFMAIR	0.719 ± 0.04	0.78 ± 0.016	0.647 ± 0.021	0.7875 ± 0.0042	0.655 ± 0.025	0.645 ± 0.012	0.7796 ± 0.004	0.566 ± 0.19
IVGVLAVLVRPV	0.484 ± 0.029	0.561 ± 0.019	0.369 ± 0.03	0.5371 ± 0.0051	0.34 ± 0.011	0.376 ± 0.023	0.51 ± 0.017	0.466 ± 0.023
SSVGLFVLLCLV	0.31 ± 0.028	0.333 ± 0.017	0.271 ± 0.039	0.503 ± 0.07	0.2 ± 0.0056	0.205 ± 0.015	0.323 ± 0.0056	0.302 ± 0.02
AFLCVFGFCFFV	0.423 ± 0.015	0.455 ± 0.014	0.372 ± 0.035	0.482 ± 0.026	0.285 ± 0.008	0.278 ± 0.019	0.407 ± 0.025	0.339 ± 0.037
GGVVGRPWWYVG	0.694 ± 0.023	0.79439 ± 0.00012	0.677 ± 0.014	0.795 ± 0.013	0.266 ± 0.015	0.301 ± 0.015	0.605 ± 0.017	0.425 ± 0.031
KFKRLTKFYARQ	0.555 ± 0.031	0.684 ± 0.029	0.676 ± 0.032	0.618 ± 0.011	0.108 ± 0.0012	0.132 ± 0.027	0.334 ± 0.017	0.311 ± 0.0089

Sequence	protein stability index (Saccharomyces cerevisiae [1]; [3])	protein stability index (Saccharomyces cerevisiae [1]; [4])	protein stability index (Saccharomyces cerevisiae [1]; [5])	protein stability index (Saccharomyces cerevisiae [1]; [6])	protein stability index (Saccharomyces cerevisiae [1]; [7])	protein stability index (Saccharomyces cerevisiae [1]; [8])	protein stability index (Saccharomyces cerevisiae [1]; [9])	protein stability index (Saccharomyces cerevisiae [2])
LFIFYCFFFLVR	0.27 ± 0.059	0.379 ± 0.087	0.318 ± 0.043	0.395 ± 0.0053	0.359 ± 0.029	0.294 ± 0.0066	0.3824 ± 0.002	0.352 ± 0.051
WGLPVGVESSGG	0.712 ± 0.03	0.761 ± 0.021	0.648 ± 0.028	0.761 ± 0.0095	0.64 ± 0.012	0.661 ± 0.032	0.733 ± 0.015	0.732 ± 0.03
LSFLFFRLCSFF	0.487 ± 0.066	0.551 ± 0.0081	0.568 ± 0.034	0.668 ± 0.021	0.157 ± 0.0029	0.158 ± 0.017	0.184 ± 0.04	0.203 ± 0.061
LLGHLFTMLVIY	0.211 ± 0.18	0.157 ± 0.023	0.286 ± 0.053	0.366 ± 0.0077	0.397 ± 0.0055	0.234 ± 0.019	0.311 ± 0.012	0.308 ± 0.014
LLSAFPYLPVFA	0.277 ± 0.025	0.326 ± 0.048	0.251 ± 0.02	0.3941 ± 0.0035	0.2141 ± 0.00033	0.244 ± 0.022	0.373 ± 0.044	0.337 ± 0.0066
VWGLGWLVVGVG	0.179 ± 0.0033	0.218 ± 0.029	0.185 ± 0.023	0.284 ± 0.012	0.165 ± 0.0044	0.179 ± 0.018	0.267 ± 0.0082	0.221 ± 0.011
SPPHSPSALPPP	0.674 ± 0.025	0.726 ± 0.0086	0.656 ± 0.023	0.732 ± 0.019	0.685 ± 0.022	0.669 ± 0.0081	0.701 ± 0.0078	0.587 ± 0.15
EVGTMALISCSV	0.3854 ± 0.001	0.356 ± 0.084	0.319 ± 0.05	0.458 ± 0.022	0.252 ± 0.019	0.288 ± 0.034	0.427 ± 0.039	0.428 ± 0.034
GQLIYQHIFILG	0.662 ± 0.063	0.6481 ± 0.0016	0.47 ± 0.011	0.676 ± 0.025	0.312 ± 0.021	0.353 ± 0.021	0.5677 ± 0.0052	0.4678 ± 0.00024
KERHRNKRKQIA	0.659 ± 0.011	0.741 ± 0.021	0.66 ± 0.022	0.7046 ± 0.004	0.173 ± 0.0077	0.205 ± 0.035	0.43 ± 0.046	0.342 ± 0.038
SLCPFLCILCFG	0.327 ± 0.0041	0.321 ± 0.036	0.28 ± 0.023	0.402 ± 0.0015	0.245 ± 0.0064	0.259 ± 0.021	0.347 ± 0.0085	0.355 ± 0.009
GELVLVMYGIWV	0.392 ± 0.013	0.47 ± 0.0055	0.29 ± 0.028	0.502 ± 0.013	0.238 ± 0.0055	0.277 ± 0.033	0.458 ± 0.0063	0.351 ± 0.058
LLYYMPELLILT	0.152 ± 0.0021	0.145 ± 0.028	0.208 ± 0.0081	0.273 ± 0.0049	0.242 ± 0.013	0.199 ± 0.025	0.264 ± 0.007	0.28 ± 0.018
LVGYCGAWACVV	0.642 ± 0.034	0.677 ± 0.021	0.558 ± 0.023	0.674 ± 0.018	0.244 ± 0.011	0.283 ± 0.027	0.501 ± 0.025	0.4 ± 0.036
GWVVWLTGCLVF	0.512 ± 0.028	0.592 ± 0.014	0.446 ± 0.022	0.586 ± 0.042	0.407 ± 0.0086	0.443 ± 0.017	0.621 ± 0.028	0.4592 ± 0.0025
SFVVVFTFFFGC	0.272 ± 0.018	0.381 ± 0.031	0.239 ± 0.032	0.408 ± 0.026	0.221 ± 0.011	0.258 ± 0.036	0.377 ± 0.02	0.312 ± 0.015
FLTSPSVWRYLF	0.623 ± 0.026	0.7196 ± 0.0049	0.693 ± 0.032	0.755 ± 0.0045	0.125 ± 0.046	0.139 ± 0.017	0.227 ± 0.017	0.153 ± 0.036
CSRDVFLFIKFL	0.391 ± 0.023	0.544 ± 0.018	0.457 ± 0.0096	0.5679 ± 0.002	0.0736 ± 0.035	0.075 ± 0.019	0.127 ± 0.037	0.132 ± 0.02
KIIKERIRRIKI	0.653 ± 0.013	0.632 ± 0.1	0.591 ± 0.032	0.71254 ± 0.0005	0.153 ± 0.0034	0.181 ± 0.049	0.286 ± 0.076	0.243 ± 0.032
